Experimental findings from PMC12691602, “Cryo-EM structure of the QseG-QseE complex reveals an accessory protein-driven two-component system activation mechanism” (mBio, 2025) are described below.

The target of series [1] is strep-tagged QseE_(1-196) (Salmonella enterica serovar Typhimurium SL1344). Kind of series: cross-linking; QseE constructs in solution (Fig. S2A); cross-linker and conditions not shown.
Series [2] concerns the molecule itself. Nature of the series: cryo-EM structure; QseG_(37-221) and QseE mixed at 3:1 molar ratio, complex separated by SEC; 3.9 Å map with C2 symmetry imposed; model limited to QseG 58-220 and QseE 34-173.
The target of series [3] is T1, QseE (Escherichia coli, UniProt Q8XA47).
T1 chain: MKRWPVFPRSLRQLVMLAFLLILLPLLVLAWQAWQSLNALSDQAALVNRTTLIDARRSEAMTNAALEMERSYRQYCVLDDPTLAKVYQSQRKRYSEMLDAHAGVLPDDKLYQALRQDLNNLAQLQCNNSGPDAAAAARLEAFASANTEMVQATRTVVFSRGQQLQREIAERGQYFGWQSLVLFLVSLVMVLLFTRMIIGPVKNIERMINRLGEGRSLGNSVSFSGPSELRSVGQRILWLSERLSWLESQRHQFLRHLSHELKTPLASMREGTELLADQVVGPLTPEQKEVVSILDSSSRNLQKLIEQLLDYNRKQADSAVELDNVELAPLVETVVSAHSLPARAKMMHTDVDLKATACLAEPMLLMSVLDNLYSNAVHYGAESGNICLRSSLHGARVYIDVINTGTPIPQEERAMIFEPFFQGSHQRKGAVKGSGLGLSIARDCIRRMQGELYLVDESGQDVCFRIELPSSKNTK

Series [4] concerns the target T2, QseE-eGFP (Salmonella enterica serovar Typhimurium …, UniProt A0A4Z0KJZ8 1-461).
T2 construct: QseE of S. Typhimurium SL1344 fused to eGFP; source: E. coli, purified
T2 sequence: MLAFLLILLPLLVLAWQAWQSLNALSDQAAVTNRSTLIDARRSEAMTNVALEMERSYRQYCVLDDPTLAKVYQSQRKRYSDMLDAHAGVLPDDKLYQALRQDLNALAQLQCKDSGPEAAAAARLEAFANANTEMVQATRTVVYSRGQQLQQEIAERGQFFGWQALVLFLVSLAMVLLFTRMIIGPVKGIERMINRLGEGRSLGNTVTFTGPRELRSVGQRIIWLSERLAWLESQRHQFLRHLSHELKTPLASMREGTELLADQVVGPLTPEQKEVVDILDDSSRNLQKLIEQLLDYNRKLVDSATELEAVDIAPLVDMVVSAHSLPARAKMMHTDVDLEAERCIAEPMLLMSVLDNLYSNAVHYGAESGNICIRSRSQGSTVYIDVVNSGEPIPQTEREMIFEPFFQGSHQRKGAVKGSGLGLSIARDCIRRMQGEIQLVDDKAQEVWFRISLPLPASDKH
Nature of the series: MST; QseG_(37-end) in serial dilution mixed with QseE-eGFP; 20 mM HEPES pH 7.5, 150 mM NaCl, 0.02% DDM, 0.05% Tween 20; 25°C, 30 min; Monolith NT.115, medium MST power, 40% LED. Conditions: both partners purified.

What is called stoichiometry N is the number of molecules, sites or subunits per partner or assembly. In series [1], “strep-tagged QseE_(1-196) (from UniProt A0A4Z0KJZ8 1-196) (domain or fragment)” showed a stoichiometry N of 2.

B1: full-length QseE (QseEfl), C-terminal Strep II tag (natural protein)
chain: T2 sequence
notes: Dimer by cross-linking and in the cryo-EM structure; also called strep-tagged QseE; source: E. coli C43(DE3), purified from membranes in LMNG/CHS (Strep-Tactin, SEC); not shown: Strep II, C-terminal, kept
For the molecule B1, the “stoichiometry N” value in series [2] came out at 2.

B2: QseG (protein)
chain: CVQNHNKPAIDTPAEEKIPVYQLADYLSTECSDIWALQGKSTETNPLYWLRAMDCADRLMPAQSRQQARQYDDGSWQNTFKQGILLADAKITPYERRQLVARIEALSTEIPAQVRPLYQLWRDGQALQLQLAEERQRYSKLQQSSDSELDTLRQQHHVLQQQLELTTRKLENLTDIERQLSTRKPAGNFSPDTPHESEKPAPSTHEVTPDEP
By Kd is commonly meant the equilibrium constant for the complex coming apart. Take B2: the affinity in series [3], expressed as Kd, was 109 nM.

B3: QseG_(37-221) (domain or fragment)
chain: CVPHASQQLPDSAAQDTLPHYQLADYLPTACADIWSLRGQAVETNPLYWLRTIDCADRLMPVQSRAEARALTDDNWQNAFRRGILLADAKITPPERRAIVTRLEALSAQIPAQVRPVYQIWHDGQALQLALSAERQRYSKLQQTSDSELDALRQQQQALQTQLDLTTRKLESLTDIERQLSTRKP
notes: QseG of S. Typhimurium SL1344, residues 37-221; Homodimer in the cryo-EM structure of the complex; source: E. coli C43(DE3), purified (Strep-Tactin, on-column TEV cleavage, SEC); not shown: Strep II, N-terminal, cleaved
Regarding B3, in series [2], the “stoichiometry N” value was found to be 2.

B4: QseG (mature lipoprotein, QseG_(37-end)) (natural protein)
chain: CVPHASQQLPDSAAQDTLPHYQLADYLPTACADIWSLRGQAVETNPLYWLRTIDCADRLMPVQSRAEARALTDDNWQNAFRRGILLADAKITPPERRAIVTRLEALSAQIPAQVRPVYQIWHDGQALQLALSAERQRYSKLQQTSDSELDALRQQQQALQTQLDLTTRKLESLTDIERQLSTRKPAGNYNADTPHTNDKPATSEDGAAPSPSQDEVTP
notes: also called wild-type QseG; source: E. coli C43(DE3), purified (Strep-Tactin, on-column TEV cleavage, SEC); not shown: Strep II, N-terminal, cleaved
Regarding B4, in series [4], the Kd is 108 nM.
